Data as given in patent publication US7696168 (TUFTS MEDICAL CENTER, dated 2010).
Numbering of substitutions follows the chain as printed. The star is where a group is joined. Palmitoyl = CCCCCCCCCCCCCCCC(=O)*

Assays:
PAR1 delta377 mutant = PAR1 delta377 mutant (UniProt P25116)
PAR1 S309P mutant = target: T1, PAR1 S309P mutant (human, UniProt P25116 42-425); test: cell-based or functional assay
T1 sequence (looked up): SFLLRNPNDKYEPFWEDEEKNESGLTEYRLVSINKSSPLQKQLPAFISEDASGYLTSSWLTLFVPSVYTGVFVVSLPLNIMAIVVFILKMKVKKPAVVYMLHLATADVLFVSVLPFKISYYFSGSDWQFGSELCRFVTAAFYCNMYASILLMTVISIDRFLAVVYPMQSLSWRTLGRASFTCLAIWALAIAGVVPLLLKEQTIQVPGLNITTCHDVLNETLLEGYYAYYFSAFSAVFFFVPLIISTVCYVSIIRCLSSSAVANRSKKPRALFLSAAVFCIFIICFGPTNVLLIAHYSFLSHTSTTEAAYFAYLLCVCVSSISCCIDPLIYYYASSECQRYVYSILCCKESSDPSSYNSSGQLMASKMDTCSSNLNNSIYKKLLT

murine PAR4 = target: T2, murine PAR4 (mouse, UniProt O88634 60-396); test: cell-based or functional assay
T2 sequence (looked up): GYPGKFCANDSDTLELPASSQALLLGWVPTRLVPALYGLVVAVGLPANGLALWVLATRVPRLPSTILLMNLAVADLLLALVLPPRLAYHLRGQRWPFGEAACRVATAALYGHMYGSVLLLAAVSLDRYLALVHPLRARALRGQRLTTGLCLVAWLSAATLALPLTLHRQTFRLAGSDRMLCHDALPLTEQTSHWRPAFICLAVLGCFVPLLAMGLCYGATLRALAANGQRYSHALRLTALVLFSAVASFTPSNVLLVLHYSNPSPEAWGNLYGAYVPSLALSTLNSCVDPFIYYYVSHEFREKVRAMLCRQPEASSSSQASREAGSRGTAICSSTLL

human PAR4 [1] = target: T3, human PAR4 (human, UniProt Q96RI0 48-385); test: cell-based or functional assay
T3 sequence (looked up): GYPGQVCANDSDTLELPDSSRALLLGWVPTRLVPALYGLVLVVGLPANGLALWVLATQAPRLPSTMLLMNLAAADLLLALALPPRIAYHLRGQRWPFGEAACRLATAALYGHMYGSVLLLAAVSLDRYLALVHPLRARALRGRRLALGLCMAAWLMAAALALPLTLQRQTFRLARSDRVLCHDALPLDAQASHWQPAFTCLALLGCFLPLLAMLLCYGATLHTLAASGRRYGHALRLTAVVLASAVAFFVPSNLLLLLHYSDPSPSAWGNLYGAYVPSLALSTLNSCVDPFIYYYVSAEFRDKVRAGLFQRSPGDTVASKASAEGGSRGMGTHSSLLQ

human PAR1 [2] = target: T4, human PAR1 (human, UniProt P25116 42-425); test: cell-based or functional assay
T4 sequence (looked up): T1 sequence (looked up) with P268S

human PAR1 [3] = target: T4, human PAR1; test: cell-based or functional assay; remark: listed apart in the source
human PAR4 [4] = target: T3, human PAR4; test: cell-based or functional assay; remark: listed apart in the source
[5] = target: human glucagon-like peptide-1 receptor (GLP-1R) (human, UniProt P43220 24-463); test: cell-based or functional assay
[6] = target: T5, human cholecystokinin B receptor (CCKB) (human, UniProt P32239 1-447); test: cell-based or functional assay
T5 sequence (looked up): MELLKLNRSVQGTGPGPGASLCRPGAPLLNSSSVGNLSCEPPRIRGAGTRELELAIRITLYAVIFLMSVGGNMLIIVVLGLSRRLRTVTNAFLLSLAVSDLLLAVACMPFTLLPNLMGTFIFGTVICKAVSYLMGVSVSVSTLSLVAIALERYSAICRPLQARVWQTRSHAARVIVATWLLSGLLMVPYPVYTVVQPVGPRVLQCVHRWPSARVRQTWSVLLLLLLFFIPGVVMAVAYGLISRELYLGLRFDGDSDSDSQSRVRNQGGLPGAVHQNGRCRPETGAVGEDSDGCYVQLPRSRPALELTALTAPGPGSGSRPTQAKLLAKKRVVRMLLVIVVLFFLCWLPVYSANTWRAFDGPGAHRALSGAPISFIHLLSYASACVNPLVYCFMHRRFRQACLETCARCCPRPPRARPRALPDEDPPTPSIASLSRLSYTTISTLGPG

[7] = target: T5, human cholecystokinin B receptor (CCKB); test: cell-based or functional assay; remark: listed apart in the source
human PAR2 = target: T6, human PAR2 (human, UniProt P55085 37-397); test: cell-based or functional assay
T6 sequence (looked up): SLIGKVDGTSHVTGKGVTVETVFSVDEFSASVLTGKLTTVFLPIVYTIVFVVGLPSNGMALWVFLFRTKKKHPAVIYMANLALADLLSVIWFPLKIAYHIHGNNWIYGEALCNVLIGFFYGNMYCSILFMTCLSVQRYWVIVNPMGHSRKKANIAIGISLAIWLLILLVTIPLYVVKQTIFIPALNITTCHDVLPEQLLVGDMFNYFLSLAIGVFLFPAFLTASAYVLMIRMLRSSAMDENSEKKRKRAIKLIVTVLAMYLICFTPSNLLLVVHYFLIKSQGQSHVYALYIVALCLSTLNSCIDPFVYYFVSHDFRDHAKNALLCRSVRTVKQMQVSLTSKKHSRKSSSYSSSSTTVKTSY

thrombin
reduction of efficacy against wild type PAR1 (PLC-beta, InsP) (PAR1 delta377 mutant): Efficacy is reduced by 2-3 fold for the two PAR1 agonists

thrombin (enzyme)
loss of potency against wild type PAR1 (InsP) (PAR1 S309P mutant): 17 fold | EC50, aggregation of murine platelets by thrombin (murine PAR4): 0.6 nM

B1: P4pal-10 (Pal-SGRRYGHALR) (peptide)
peptide: Palmitoyl-SGRRYGHALR-NH2
SMILES: CCCCCCCCCCCCCCCC(=O)N[C@@H](CO)C(=O)NCC(=O)N[C@@H](CCCNC(=N)N)C(=O)N[C@@H](CCCNC(=N)N)C(=O)N[C@@H](Cc1ccc(O)cc1)C(=O)NCC(=O)N[C@@H](Cc1c[nH]cn1)C(=O)N[C@@H](C)C(=O)N[C@@H](CC(C)C)C(=O)N[C@@H](CCCNC(=N)N)C(N)=O
IC50, inhibition of platelet aggregation to AYPGKF (human PAR4 [1]): 500 to 1000 nM | inhibition of the rate of murine platelet aggregation to 3 nM thrombin, 3 µM pepducin (murine PAR4): 7 fold

B2: P1pal-19Q (Pal-RCLSSSAVANQSQQSQALF) (peptide)
peptide: Palmitoyl-RCLSSSAVANQSQQSQALF-NH2
SMILES: CCCCCCCCCCCCCCCC(=O)N[C@@H](CCCNC(=N)N)C(=O)N[C@@H](CS)C(=O)N[C@@H](CC(C)C)C(=O)N[C@@H](CO)C(=O)N[C@@H](CO)C(=O)N[C@@H](CO)C(=O)N[C@@H](C)C(=O)N[C@H](C(=O)N[C@@H](C)C(=O)N[C@@H](CC(N)=O)C(=O)N[C@@H](CCC(N)=O)C(=O)N[C@@H](CO)C(=O)N[C@@H](CCC(N)=O)C(=O)N[C@@H](CCC(N)=O)C(=O)N[C@@H](CO)C(=O)N[C@@H](CCC(N)=O)C(=O)N[C@@H](C)C(=O)N[C@@H](CC(C)C)C(=O)N[C@@H](Cc1ccccc1)C(N)=O)C(C)C
Agonist EC50 (activating phase, InsP formation) (human PAR1 [2]): 650 nM | Agonist Efficacy (% of full response to extracellular agonist) (human PAR1 [2]): 46% | Agonist IC50 (inhibitory phase, InsP formation) (human PAR1 [2]): 30000 nM | loss in efficacy, platelet aggregation or InsP in PAR1-Rat1 cells (human PAR1 [3]): 2 fold

B3: P4pal-15 (Pal-HTLAASGRRYGHALR) (peptide)
peptide: Palmitoyl-HTLAASGRRYGHALR-NH2
SMILES: CCCCCCCCCCCCCCCC(=O)N[C@@H](Cc1c[nH]cn1)C(=O)N[C@H](C(=O)N[C@@H](CC(C)C)C(=O)N[C@@H](C)C(=O)N[C@@H](C)C(=O)N[C@@H](CO)C(=O)NCC(=O)N[C@@H](CCCNC(=N)N)C(=O)N[C@@H](CCCNC(=N)N)C(=O)N[C@@H](Cc1ccc(O)cc1)C(=O)NCC(=O)N[C@@H](Cc1c[nH]cn1)C(=O)N[C@@H](C)C(=O)N[C@@H](CC(C)C)C(=O)N[C@@H](CCCNC(=N)N)C(N)=O)[C@@H](C)O
Antagonist IC50 (InsP formation, against 10 nM thrombin) (human PAR4 [4]): 3000 nM | IC50, inhibition of platelet aggregation to 200 micromolar AYPGKF (human PAR4 [1]): 600 nM

B4: G1pal-15 pepducin (peptide)
peptide: Palmitoyl-ANLMSKTDIKCRLAF-NH2
SMILES: CCCCCCCCCCCCCCCC(=O)N[C@@H](C)C(=O)N[C@@H](CC(N)=O)C(=O)N[C@@H](CC(C)C)C(=O)N[C@@H](CCSC)C(=O)N[C@@H](CO)C(=O)N[C@@H](CCCCN)C(=O)N[C@H](C(=O)N[C@@H](CC(=O)O)C(=O)N[C@H](C(=O)N[C@@H](CCCCN)C(=O)N[C@@H](CS)C(=O)N[C@@H](CCCNC(=N)N)C(=O)N[C@@H](CC(C)C)C(=O)N[C@@H](C)C(=O)N[C@@H](Cc1ccccc1)C(N)=O)[C@@H](C)CC)[C@@H](C)O
cAMP in Cos7 fibroblasts, fold activation at 1 µM pepducin [5]: 1.7 fold

B5: P1pal-19 (Pal-RCLSSSAVANRSKKSRALF) (peptide)
peptide: Palmitoyl-RCLSSSAVANRSKKSRALF-NH2
SMILES: CCCCCCCCCCCCCCCC(=O)N[C@@H](CCCNC(=N)N)C(=O)N[C@@H](CS)C(=O)N[C@@H](CC(C)C)C(=O)N[C@@H](CO)C(=O)N[C@@H](CO)C(=O)N[C@@H](CO)C(=O)N[C@@H](C)C(=O)N[C@H](C(=O)N[C@@H](C)C(=O)N[C@@H](CC(N)=O)C(=O)N[C@@H](CCCNC(=N)N)C(=O)N[C@@H](CO)C(=O)N[C@@H](CCCCN)C(=O)N[C@@H](CCCCN)C(=O)N[C@@H](CO)C(=O)N[C@@H](CCCNC(=N)N)C(=O)N[C@@H](C)C(=O)N[C@@H](CC(C)C)C(=O)N[C@@H](Cc1ccccc1)C(N)=O)C(C)C
Agonist EC50 (activating phase, InsP formation) (human PAR1 [2]): 180 nM | Agonist Efficacy (% of full response to extracellular agonist) (human PAR1 [2]): 90% | Agonist IC50 (inhibitory phase, InsP formation) (human PAR1 [2]): 6500 nM | platelet aggregation EC50 (human PAR1 [3]): 8000 nM | loss in efficacy against wild type PAR1 (InsP) (PAR1 S309P mutant): 4.3 fold | loss in potency against wild type PAR1 (InsP) (PAR1 S309P mutant): 13 fold

B6: Bpal-18F (Pal-SGSRPTQAKLLAKKRVVF) (peptide)
peptide: Palmitoyl-SGSRPTQAKLLAKKRVVF-NH2
SMILES: CCCCCCCCCCCCCCCC(=O)N[C@@H](CO)C(=O)NCC(=O)N[C@@H](CO)C(=O)N[C@@H](CCCNC(=N)N)C(=O)N1CCC[C@H]1C(=O)N[C@H](C(=O)N[C@@H](CCC(N)=O)C(=O)N[C@@H](C)C(=O)N[C@@H](CCCCN)C(=O)N[C@@H](CC(C)C)C(=O)N[C@@H](CC(C)C)C(=O)N[C@@H](C)C(=O)N[C@@H](CCCCN)C(=O)N[C@@H](CCCCN)C(=O)N[C@@H](CCCNC(=N)N)C(=O)N[C@H](C(=O)N[C@H](C(=O)N[C@@H](Cc1ccccc1)C(N)=O)C(C)C)C(C)C)[C@@H](C)O
Agonist EC50 (activating phase, InsP formation) [6]: 100 nM | Agonist Efficacy (% of full response to 300 nM CCK-8) [6]: 13% | Agonist IC50 (inhibitory phase, InsP formation) [6]: 1000 nM | improvement of potency against the wild-type CCKB peptide [7]: 15 fold

SLIGKV
InsP formation, fold-stimulation by 100 micromolar SLIGKV (P2pal-21 experiment) (human PAR2): 3.1 fold

B7: P4pal-15F (Pal-HTLAASGRRYGHALF) (peptide)
peptide: Palmitoyl-HTLAASGRRYGHALF-NH2
SMILES: CCCCCCCCCCCCCCCC(=O)N[C@@H](Cc1c[nH]cn1)C(=O)N[C@H](C(=O)N[C@@H](CC(C)C)C(=O)N[C@@H](C)C(=O)N[C@@H](C)C(=O)N[C@@H](CO)C(=O)NCC(=O)N[C@@H](CCCNC(=N)N)C(=O)N[C@@H](CCCNC(=N)N)C(=O)N[C@@H](Cc1ccc(O)cc1)C(=O)NCC(=O)N[C@@H](Cc1c[nH]cn1)C(=O)N[C@@H](C)C(=O)N[C@@H](CC(C)C)C(=O)N[C@@H](Cc1ccccc1)C(N)=O)[C@@H](C)O
Antagonist IC50 (InsP formation, against 10 nM thrombin) (human PAR4 [4]): > 2000 nM
